{"source": "paper PMC3024247", "binders": {"B1": {"name": "human midkine (natural protein)", "chain": "VAKKKDKVKKGGPGSECAEWAWGPCTPSSKDCGVGFREGTCGAQTQRIRCRVPCNWKKEFGADCKYKFENWGACDGGTGTKVRQGTLKKARYNAQCQETIRVTKPCTPKTKAKAKAKKGKGKD"}}, "target": "amyloid β-peptide (human, 1-40) (human)", "experiment": "SPR; Biacore 3000; Aβ immobilised by amine coupling on a CM5 chip; analytes injected in 10 mM HEPES-NaOH pH 7.4, 0.15 M NaCl, 0.0005% Tween 20; 25°C; hMK 0.62-20 μg/ml for the constant, all other analytes 5 μg/ml", "data": [{"binder": "B1", "values": [{"measurement": "Kd", "result": 160, "unit": "nM"}]}]}
